From US20250195685A1 (CAPSTAN THERAPEUTICS, published 2025) come the findings set out here.

For assay [1], the target named is T1, human CD8αα homodimer, recombinant protein (Acro Biosystems) (human, UniProt P01732 22-182).
T1 construct: also called CD8αα antigen; biotinylated CD8α recombinant protein (CDA-H82E3)
As to the kind of experiment: BLI steady state, whole hIgG1-LALAPA antibody on CD8α-His (Ni-NTA sensor), 30 °C. The method, then:
(§1) To assess affinity of whole antibodies, steady state analysis was used as the bivalent nature of both whole antibody and CD8α complicates kinetic analysis. 50 nM CD8α-His (that is, CD8α with a C-terminal oligohistidine tag; Acro) was immobilized on Ni-NTA sensor probes. Binding was analyzed with a three-fold antibody dilutions series: 60 nM, 20 nM, 6.67 nM, 2.22 nM, 0.74 nM, and 0.25 nM. The antigen-loaded sensors were incubated in the diluted solutions to capture the whole IgG antibody for 300 s to record the association phase. Sensors were incubated in the kinetic buffer for 900 s to record the dissociation phase. The spin speed was 1000 rpm for all steps except the antigen loading step which was 400 rpm to control density of the antigen. The temperature of the performed assays was at 30° C. during the association and dissociation phases. The sensor data were baseline subtracted and further analyzed in GatorOne software (version 2.10) to determine the equilibrium dissociation constants (KD) of the antibodies by fitting the signals of the steady states to the 1:1 binding model.

Assay [2] has as its target T1, human CD8αα homodimer, recombinant …. As to the kind of experiment: BLI, whole antibody.
For assay [3], the target named is T2, human CD8 on cells (CD8-overexpressing HEK293T cells, SupT1, HPB-ALL, human T cells, transfected HEK293 of … (human, UniProt P01732 22-235)).
T2 construct: whole, on cells; also called cell surface CD8
As to the kind of experiment: flow cytometry on HPB-ALL cells; HPB-ALL cells. Here is the method: To obtain the results shown in FIG. 6, SupT1 (ATCC #CRL-1942) and HPB-ALL (DSMZ; ACC-483) were cultured in RPMI medium supplemented with 10% Fetal Bovine Serum (#97068-085; Avantor). To determine EC₅₀ values of cell binding from the anti-CD8α antibody, 2×10⁵ total cells were transferred to a V bottom 96-well culture plate (Corning). Cells were washed twice with Cell Staining buffer (#420201, Biolegend). The anti-CD8α antibody was diluted in four-fold antibody titration series from 60 μg/mL to […] into Cell Staining buffer. Cells were stained with each diluted antibody solution for 30 minutes on ice. Cells were then washed three times with Cell Staining buffer and primary antibody binding was detected by staining with anti-human Fc BV421 conjugate antibody (#410704, Biolegend) at 1:200 dilution for 30 minutes on ice. eFluor 780 Fixable Viability dye (eBioscience) at a 1:4000 dilution were also included in the detection antibody solutions. […] Flow cytometry data was analyzed by Flowjo 10 (Becton, Dickinson & Company) to measure the geometric median fluorescence intensity (gMFI) of the on-cell binding from each antibody. The gMFI values were normalized with the gMFI measured in the sample stained with only the secondary detection antibody and plotted against the concentration of the added antibodies. […]
For orientation: A flow cytometer gives signals particle by particle.

Assay [4] concerns the target T1, human CD8αα homodimer, recombinant …. As to the kind of experiment: SPR (Biacore 8K), antibody captured by anti-human Fc, CD8 as analyte, 1:1 fit, 25 °C. The method, then:
(§2) Except for cynomolgus CD8αβ heterodimer, binding was analyzed with a two-fold dilution series of recombinant CD8αα homodimer or CD8αβ heterodimer protein from 200 nM to 6.25 nM. For cynomolgus CD8αβ heterodimer, binding was analyzed with a two-dilution series from 400 nM to 12.5 nM.. The global fitting was performed with a 1:1 fitting model using GatorOne software as described below.
(§3) Surface plasmon resonance (SPR) assays were performed using a Biacore 8K SPR instrument (Cytiva) in a running buffer containing 1×HBS-N(Cytiva) and 0.05% Tween-20 at 25° C. The CBD1033 antibody was captured by anti-human IgG (Fc) antibody (Cytiva) immobilized on a CM5 sensor chip (Cytiva) at a density within 40-50 and 80-100 response units (RU) for kinetic measurements with CD8αα and CD8αp, respectively. To measure the binding kinetics, serial two-fold dilutions of recombinant CD8 protein were prepared in the running buffer were injected into the flow cells at […], with the concentration ranging from 200 to 6.25 nM (successive 1:2 dilutions). The association data was collected for 180 s followed by a 1200 s dissociation step. At the end of each binding cycle, the sensor surface was regenerated with a 3M MgCl₂ buffer. For cynomolgus macaque CD8αβ heterodimer, the binding kinetics were assessed with the same experimental parameters, except the concentration ranges from 400 to 12.5 nM. Sensorgrams were generated, and background-subtracted with the blank running buffer. The binding kinetic parameters were analyzed and determined with a standard 1:1 monovalent binding (Langmuir) model using BIAcore Evaluation software (Cytiva).
For orientation: In SPR one partner is held on a chip, and binding of the other changes the refractive index at the surface.

For assay [5], the target named is human CD8αβ heterodimer, recombinant protein (human, UniProt P01732 22-182; P10966 22-170, limits assumed). Described as above. The method, then: as §2, §3
Assay [6] deals with T3, cynomolgus macaque CD8αα homodimer, recombinant protein (cynomolgus macaque).
T3 construct: also called cynomolgus CD8αα homodimer
The description is as above. Here is the method:
as §2, §3

Assay [7] concerns the target T4, cynomolgus macaque CD8αβ heterodimer, recombinant protein (cynomolgus macaque).
T4 construct: In BLI coupled directly to amine-reactive sensor tips; also called cynomolgus CD8αβ heterodimer
The description is as above. The method, then:
as §2, §3

In assay [8] the target is T1, human CD8αα homodimer, recombinant …. As to the kind of experiment: BLI steady state analysis, whole antibody, sample stressed at pH 8.5, 40 °C, 3 days. The method, then:
as §1

Assay [9] has the same target. As to the kind of experiment: BLI binding kinetic analysis, whole antibody, sample stressed at pH 8.5, 40 °C, 3 days. Background: In BLI a coated tip is dipped into the sample, and binding shifts an interference pattern.

human CD8αβ heterodimer, recombinant protein, sequence (P01732 22-182 limits assumed, chain 1 of 2): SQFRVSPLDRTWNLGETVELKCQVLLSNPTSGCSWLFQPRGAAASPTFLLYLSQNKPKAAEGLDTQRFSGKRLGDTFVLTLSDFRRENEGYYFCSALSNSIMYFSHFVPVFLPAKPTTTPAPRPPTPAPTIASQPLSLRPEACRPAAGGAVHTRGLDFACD
human CD8αβ heterodimer, recombinant protein, sequence (P10966 22-170 limits assumed, chain 2 of 2): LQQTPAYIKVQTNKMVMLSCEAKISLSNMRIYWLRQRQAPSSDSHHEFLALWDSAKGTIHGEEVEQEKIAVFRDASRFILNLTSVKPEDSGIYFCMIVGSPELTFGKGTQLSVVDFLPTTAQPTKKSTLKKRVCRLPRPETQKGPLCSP
T1 sequence (P01732 22-182 limits assumed): as the sequence (P01732 22-182 limits assumed, chain 1 of 2) above
T2 sequence (P01732 22-235): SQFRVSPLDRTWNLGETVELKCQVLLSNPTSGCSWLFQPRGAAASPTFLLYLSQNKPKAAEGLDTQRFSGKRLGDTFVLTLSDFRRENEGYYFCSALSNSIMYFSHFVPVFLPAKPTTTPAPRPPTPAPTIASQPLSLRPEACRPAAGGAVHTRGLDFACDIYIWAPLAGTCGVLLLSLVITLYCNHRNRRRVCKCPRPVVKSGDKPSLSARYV

B1: CBD1017ch whole antibody (chimeric CT8 antibody) (antibody, V domains shown)
VH: EVQLQQSGPELVKPGASVKISCKASRYTFTDYNLHWVKLSHEKSLEWIGFIYPYNGGTGYNQKFKNKAKLTVDYSSSTAYMELRSLTSVDAAVYYCARDHRYNEGVSFDYWGQGTTLTVSS
VL: NIVLTQSPASLAVSLGQRATISCRASESVDGFGNSFMNWYQQKPGQSPKLLIYLASNLESGVPARFSGSGSRTDFTLTIDPVEADDAATYYCQQNNEDPYTFGGGTKLEIK
notes: Chimeric antibody comprising the variable regions of the donor antibody CT8; detected with anti-human Fc
As for B1, in [1], the dissociation constant (Kd) (commonly the concentration at which binding is half-saturated) was 0.58 nM.

B2: CBD1033 whole antibody, human IgG1 with Fc-silencing mutations L234A, L235A and P329A (CBD1033-hIgG1-LALAPA) (antibody, V domains shown)
VH: QVQLVQSGAEVKKPGASVKVSCKASRYTFTDYNLHWVRQAPGQGLEWMGFIYPYNGGTGYAQKFQGRVTMTVDTSTSTAYMELSSLRSEDTAVYYCARDHRYNEGVSFDYWGQGTTVTVSS
VL: DIQLTQSPSSLSASVGDRATITCRASESVDGFGNSFMNWYQQKPGKAPKLLIYLASNLESGVPSRFSGSGSGTDFTLTISSVQPEDFATYYCQQNNEDPYTFGQGTKLEIKR
notes: On tLNPs the antibody was SATA-modified or AJICAP-thiolated (CBD1033.29) and conjugated to the LNP; also called CBD1033.3; CBD1033 IgG1
As for B2, the off-rate constant (koff) (in general, the rate constant with which the complex falls apart) in [2] amounted to 0.00307 s⁻¹; in [4], 0.000289 s⁻¹; in assay [5], 0.00111 s⁻¹; in assay [6], 0.000271 s⁻¹; in assay [7], 0.00114 s⁻¹; in assay [9] it was 0.00314 s⁻¹. In addition, the on-rate (kon) (commonly the second-order rate constant of association) is 1.85e+06 M⁻¹ s⁻¹ in [2]; 117000 M⁻¹ s⁻¹ in assay [4]; 124000 M⁻¹ s⁻¹ in [5]; 50000 M⁻¹ s⁻¹ in assay [6]; 36800 M⁻¹ s⁻¹ in [7]; 1.57e+06 M⁻¹ s⁻¹ in assay [9]. A half-maximal response in assay [3] (EC50) required 0.274 µg/mL. In addition, the dissociation constant Kd came to 2.46 nM in assay [4]; 8.99 nM in [5]; 5.43 nM in [6]; 31 nM in assay [7]; 1.71 nM in assay [8]; 2 nM in assay [9].
